Data from PMC5401896 (2017).

Experiments:
CD20 [1] = target: T1, CD20 (Homo sapiens, UniProt P11836); assay: real-time cell binding (bivalent, Daudi)
T1 chain: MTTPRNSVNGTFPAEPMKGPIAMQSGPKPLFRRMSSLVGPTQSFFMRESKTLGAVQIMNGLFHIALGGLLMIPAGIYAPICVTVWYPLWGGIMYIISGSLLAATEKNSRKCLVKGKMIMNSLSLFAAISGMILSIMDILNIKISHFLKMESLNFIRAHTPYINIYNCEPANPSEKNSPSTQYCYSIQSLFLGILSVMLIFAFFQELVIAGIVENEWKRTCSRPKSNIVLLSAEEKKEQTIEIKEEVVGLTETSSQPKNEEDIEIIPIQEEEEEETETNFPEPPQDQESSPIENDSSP

CD20 [2] = target: T1, CD20; assay: real-time cell binding (one-to-two, Daudi)
CD20 [3] = target: T1, CD20; assay: real-time cell binding (one-to-one, Ramos)

B1: Rituximab (antibody, V domains shown)
VH: QVQLQQPGAELVKPGASVKMSCKASGYTFTSYNMHWVKQTPGRGLEWIGAIYPGNGDTSYNQKFKGKATLTADKSSSTAYMQLSSLTSEDSAVYYCARSTYYGGDWYFNVWGAGTTVTVSA
VL: QIVLSQSPAILSASPGEKVTMTCRASSSVSYIHWFQQKPGSSPKPWIYATSNLASGVPVRFSGSGSGTSYSLTISRVEAEDAATYYCQQWTSNPPTFGGGTKLEIK
Which results are given for B1?
Kd (CD20 [1]): 7800 pM; Kd (CD20 [2]): 200 pM; Kd (CD20 [3]): 700 pM
